Measurements reported in US20010006793A1, “MODULATORS OF EUKARYOTIC CASPASES” (priority 1998, published 2001).

Target: T1, human caspase-8β (Homo sapiens, UniProt Q14790)
T1 construct: expressed in transfected cells; host or cells: Saccharomyces cerevisiae FY250, single-copy ARS/CEN vector YCpGAL1-caspase-8β-L, GAL1 promoter
Test: Yeast screening method: suppression of caspase-8β-induced lethality in S. cerevisiae FY250 double transformants on galactose medium
Type: cell-based
Details: for identified as a caspase inhibitor (product of human brain cDNA suppressing caspase-8β-induced cell death): FY250 double transformants, GAL1-driven expression, galactose-containing medium; for Caspase Inhibitor: Table 1 Caspase Modulators, identified using the screening method of the invention
Text: The invention includes a screening method of determining whether a compound is a caspase modulator. […] A difference between the viability indicator of the first cell and the viability indicator of the second cell is an indication that the compound is a caspase modulator.
As described herein, the transformant expresses the caspase when an inducer of the inducible promoter of the caspase vector is provided to the caspase transformant. When the caspase transformant expresses the caspase, cytotoxicity ensues in the caspase transformant. If an inhibitor of the caspase is provided to the caspase transformant prior to the onset of cytotoxicity, the caspase transformant may be enabled to survive expression of the caspase or the onset of cytotoxicity may be delayed.
The gene encoding p35 was cloned into a yeast-based expression vector designated YCpGAL1-U (wherein U designates a URA3 selectable marker) to yield a YCpGAL1-p35-U inhibitor vector. Yeast cells were co-transformed with the inhibitor vector, YCpGAL1-p35-U, and with the caspase vector, YCpGAL1-caspase-8β-L, to yield a double transformant. Double transformants were plated on SC-leucine-uracil medium supplemented with dextrose to repress GAL1 promoter function. Serial ten-fold dilutions of individual double transformants grown in SC-leucine-uracil medium containing dextrose were prepared and spotted onto SC-leucine-uracil medium comprising dextrose or galactose.
Individual viable colonies of double transformant are isolated, and the test vector comprising the unknown cDNA is isolated.
The screening method used in this Example was performed as follows. A yeast double transformant was prepared by transforming S. cerevisiae strain FY250 with two yeast expression vectors. The first yeast expression vector comprised cDNA encoding a self-activating form of human caspase-8β operably linked to a GAL1 promoter and a LEU2 selectable marker. This first vector was a single copy vector and was designated YCpGAL1-caspase-8β-L. A plurality of second yeast expression vectors was used, each comprising a single random human cDNA sequence operably linked to a GAL1 promoter and a URA3 selectable marker. The cDNA sequences used to generate the plurality of second yeast expression vectors were obtained from a library of cDNAs prepared from human brain cells. The second vectors were multicopy vectors.
Double transformants were propagated on plates containing SC-leucine-uracil agar comprising dextrose. Colonies of double transformants were replica plated on plates containing medium comprising galactose, whereby expression of caspase-8β and of any product encoded by the cDNA of the second vector was induced. […] The second vector was recovered from individual colonies of double transformants which were able to survive on the galactose-containing medium and used, along with the first vector, to transform fresh FY250 cells. […] The identity of individual products encoded by the cDNA of individual second vectors was established by determining the nucleotide sequence of the cDNA and comparing the sequence with databases of known human gene sequences, including Genbank, the EST Database, and the Human Genome Database.

T1 sequence (Q14790 1-464 isoform Q14790-2): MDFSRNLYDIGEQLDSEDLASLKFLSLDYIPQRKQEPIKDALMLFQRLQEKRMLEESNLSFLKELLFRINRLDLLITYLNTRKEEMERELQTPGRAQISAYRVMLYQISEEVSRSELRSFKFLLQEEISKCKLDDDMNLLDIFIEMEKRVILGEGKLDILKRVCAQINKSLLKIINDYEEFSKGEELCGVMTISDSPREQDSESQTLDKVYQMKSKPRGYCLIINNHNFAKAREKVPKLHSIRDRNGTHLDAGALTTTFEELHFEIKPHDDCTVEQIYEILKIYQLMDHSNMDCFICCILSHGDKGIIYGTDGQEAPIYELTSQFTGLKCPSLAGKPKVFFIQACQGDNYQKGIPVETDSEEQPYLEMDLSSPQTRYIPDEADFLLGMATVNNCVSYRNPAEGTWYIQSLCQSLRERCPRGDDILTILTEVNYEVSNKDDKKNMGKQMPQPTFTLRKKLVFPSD

Row | Substance | identified as a caspase inhibitor (product of human brain cDNA suppressing caspase-8β-induced cell death) | Caspase Inhibitor
1 | Human Synaptophysin p38: product encoded by human brain cDNA, identified as caspase inhibitor | caspase inhibitor | ✓
2 | Human Tat Binding Protein: product encoded by human brain cDNA; also known as TBP, SUG1, and 26S proteosomal p45 subunit ATPase | caspase inhibitor | ✓
3 | Human Cytochrome b: product encoded by human brain cDNA, identified as caspase inhibitor | caspase inhibitor | ✓
4 | z-VAD-fmk [reference compound] | – | ✓
5 | IETD/fmk [reference compound] | – | ✓
